The values that follow come from patent US20230331827A1, “POTASSIUM CHANNEL INHIBITORS” (priority 2017, published 2023).

What all share (format): cell-based
The target in one assay is T1, huKv1.3 (Homo sapiens, UniProt P22001).
T1 construct: host or cells: CHO
Kind of assay: QPatch automated whole-cell patch-clamp, CHO cells stably expressing huKv1.3 (Example 8). Particulars: Kv1.3 channels, IgG KnotBody, Table 11A. Here is the method:
Knottin Kv 1.3 and ASIC1a blockers expressed in the KnotBody format (see examples 6 and 7) were tested for their ability to inhibit the function of the ion channel targets. The effect of these KnotBodies on cells expressing the human Kv 1.3 (huKv1.3) or human ASIC1a channels was assessed using QPatch automated whole-cell patch-clamp electrophysiology (Sophion).
For the testing of Kv1.3, CHO cells stably expressing huKv1.3 (Charles River Lab) were analysed using the QPatch electrophysiology assay in the presence or absence of the KnotBody fusions or the antibody isotypes (negative) controls. Internal and external physiological solutions were freshly prepared prior to the assay. The extracellular solution contained 145 mM NaCl, 4 mM KCl, 2 mM CaCl2, 1 mM MgCl2, 10 mM HEPES and 10 mM glucose; the pH was adjusted to 7.4 with NaOH; the osmolarity was ~ 305 mOsm/L. The intracellular solution contained: KF (120 mM), KCl (20 mM), HEPES (10 mM) and EGTA (10 mM); the pH was adjusted to 7.2 with KOH; osmolarity was ~ 320 mOsm/L.
A series of depolarising voltage (channel activating) pulses were used to monitor the channel currents upon adding control (extracellular solution) to define a control baseline of current activity. To these measured control currents ascending concentrations of KnotBodies or parental antibody isotypes (control molecules) were applied to the external bathing solution (2.2 µM - 0.5 nM, diluted in the extracellular solution). KnotBodies KB_A12 and KB_A07 (EETI-II fusions) were used as isotype controls for the testing. From a holding voltage of -80 mV a depolarising, activating voltage pulses of +30 or +80 mV were applied for 300 ms, every 5 or 10 seconds. The elicited, maximum outward current values measured during the activating step for each solution exchange period were averaged (n = 3 - 8 for each concentration applied) and plotted as concentration-response curves. KB_A07_ShK, KB_A12_ShK and KB_A07_Kaliotoxin (KTX) fusion proteins all inhibited the huKv1.3 currents in a concentration dependent manner with IC50S of approximately 20 nM, 40 nM and 900 nM respectively.
(In patch-clamp work, channel activity is measured electrically.)

In a further assay the target is T2, human Kv1.3 (huKv1.3) (Homo sapiens, UniProt P22001).
T2 construct: host or cells: CHO
Description: QPatch automated patch-clamp, CHO cells stably expressing human Kv1.3 (Examples 19-21). Here is the method:
The effect of these KnotBodies on cells expressing human Kv1.3 (huKv1.3) channel was assessed using the QPatch automated patch-clamp platform (Sophion, Ballerup, Denmark). For the testing of Kv1.3 ion channel currents, CHO cells stably expressing human Kv1.3 (GenBank accession number NM_002232.2; cell line catalogue number CT6133, Charles River Discovery, Cleveland, USA) were subjected to a QPatch electrophysiology assay in the presence or absence of the KnotBody fusions or the antibody isotypes (negative controls). Internal and external physiological solutions were freshly prepared prior to the assay. The extracellular solution contained 145 mM NaCl, 4 mM KC1, 2 mM CaC12, 1 mM MgC12, 10 mM HEPES and 10 mM glucose; the pH was adjusted to 7.4 with NaOH; the osmolarity was ~ 305 mOsm/L. The intracellular solution contained: KF (120 mM), KC1 (20 mM), HEPES (10 mM) EGTA (10 mM); the pH was adjusted to 7.2 with KOH; osmolarity was ~ 300 mOsm/L.
(§1) A series of depolarising voltage (channel activating) pulses were used to monitor the channel currents upon adding control (extracellular solution) to define a control baseline of current activity. To these measured control currents four, ascending concentrations of KnotBodies (including KB_A12_ShK and KB_A12_KTX as previously described in Example 8) or parental antibody isotypes (control molecules) were applied to the external bathing solution. KnotBodies KB_A12 and KB_A07 (EETI-II fusions) were used as isotype controls for the testing. From a holding voltage of -80 mV a depolarising, activating voltage pulses of +30 mV were applied for 300 ms, every 10 seconds. The elicited, maximum outward current values measured during the activating step for each solution exchange period, averaged (n = 3 - 6 for each concentration applied) and plotted as concentration-response curves (see FIG. 32). From these concentration-response curves IC50 values were calculated.
(§2) For the testing of Kv1.1 and Kv1.3, CHO-S expressing huKv1.1 (described above) or CHO cells stably expressing huKv1.3 (Charles River Lab) were analysed using the QPatch electrophysiology assay in the presence or absence of the KnotBody fusions. Internal and external physiological solutions were freshly prepared prior to the assay. The extracellular solution contained 145 mM NaCl, 4 mM KC1, 2 mM CaC12, 1 mM MgC12, 10 mM HEPES and 10 mM glucose; the pH was adjusted to 7.4 with NaOH; the osmolarity was ~ 305 mOsm/L. The intracellular solution contained: KF (120 mM), KC1 (20 mM), HEPES (10 mM) EGTA (10 mM); the pH was adjusted to 7.2 with KOH; osmolarity was ~ 300 mOsm/L.
as §1, with “(including previously described” for “(including”, “KB_A12_KTX” for “KB_A12_KTX as previously”, “[…]” for “+30 mV”, “33).” for “32).”, “calculated (see Table E20).” for “calculated.”
(§3) For the testing of Kv1.1 and Kv1.3, CHO-S expressing huKv1.1 (see Example 20 and below) or CHO cells stably expressing huKv1.3 (Charles River Lab) were analysed using the QPatch electrophysiology assay in the presence or absence of the KnotBody fusions - see details in Examples 19 and 20.

The next assay concerns the target T3, human Kv1.1 (huKv1.1) (Homo sapiens, UniProt Q09470).
T3 construct: expressed in transfected cells; host or cells: Freestyle CHO-S
Kind of assay: QPatch automated patch-clamp, CHO-S cells expressing huKv1.1 (Examples 20-21). Particulars: four-point curves of FIG. 33, Table E20. Here is the method:
1. The effect of these KnotBodies on cells expressing human Kv1.1 (huKv1.1) and Kv1.3 (huKv1.3) channels was assessed using QPatch automated patch-clamp platform (Sophion).
To generate huKv1.1 expressing cells, Freestyle CHO-S cells (Cat. no. R80007, Life Technologies, California, USA) were transfected with pINT50-Tr plasmid encoding huKv1.1 gene using the MaxCyte STX (MaxCyte) transfection system. In pINT50-Tr plasmid, huKv1.1 gene is under the control of a CMV promoter. 64 µg of the plasmid DNA were added to 400 µl of Freestyle CHO-S cells (at a density of 1 × 10^8 cells/ml) in Electroporation Buffer (GE Healthcare Life Sciences, Cat. no. EPB1) in an OC-400 processing assembly (MaxCyte). Following electroporation, the cells were transferred to a well of a 24-well plate containing 200 U/ml DNAse I (Sigma, D4263) and incubated for 20 minutes at 37° C. and 5% CO2. The cells were then transferred into a 100 ml shaker flask containing 20 ml of CD Opticho Media (Thermo Fisher Scientific, Cat.No 12681-011,) supplemented with 8 mM L-Glut (Thermo Fisher Scientific, cat. no. 25030-024). The cells were incubated for 24 hours at 37° C. and 5% CO2 (and 75% humidity and shaking at 800 rpm) prior to testing using automated patch clamp electrophysiology.
as §2
as §1, with “(including previously described” for “(including”, “KB_A12_KTX” for “KB_A12_KTX as previously”, “[…]” for “+30 mV”, “33).” for “32).”, “calculated (see Table E20).” for “calculated.”
as §3
In addition to the CHO-S transiently expressing huKv1.1 (described in Example 20), CHO-S cells with poly-clonal stable expression of huKv1.1 cells were also made and used in the QPatch electrophysiology assay. To generate the polyclonal stable huKv1.1 cells from the transiently expressing cells described in Example 20, after a 24 hour incubation period the selection antibiotic Puromycin (catalogue no. A1 1138-03, Life Technologies, California, USA) was added to culture media. Then, for the first 14 days puromycin was at 10 µg ml-1 media; at days 15-28 puromycin was at 20 µg ml-1 media. Cell cultures were seeded at 2.5 x 10^5 cells ml^-1 into fresh culture media and puromycin twice per week through this selection growth period. […]

Like-named read-outs stand apart in the source and are kept apart here.

T2 sequence (P22001 whole entry): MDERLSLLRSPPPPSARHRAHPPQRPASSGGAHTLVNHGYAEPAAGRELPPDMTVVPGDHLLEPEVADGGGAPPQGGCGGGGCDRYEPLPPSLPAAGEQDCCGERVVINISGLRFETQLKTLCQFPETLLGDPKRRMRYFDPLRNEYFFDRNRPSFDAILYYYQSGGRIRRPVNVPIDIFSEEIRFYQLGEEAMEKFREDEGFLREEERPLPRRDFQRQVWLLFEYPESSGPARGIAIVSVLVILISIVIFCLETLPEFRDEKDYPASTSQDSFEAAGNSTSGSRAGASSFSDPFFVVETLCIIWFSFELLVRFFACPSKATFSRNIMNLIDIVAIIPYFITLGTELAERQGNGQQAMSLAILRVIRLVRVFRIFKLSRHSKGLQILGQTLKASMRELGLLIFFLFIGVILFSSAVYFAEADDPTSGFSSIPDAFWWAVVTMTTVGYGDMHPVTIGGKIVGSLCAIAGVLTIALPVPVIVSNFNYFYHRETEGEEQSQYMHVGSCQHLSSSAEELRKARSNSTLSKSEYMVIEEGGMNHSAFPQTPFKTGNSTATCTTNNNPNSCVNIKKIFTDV
T3 sequence (Q09470 whole entry): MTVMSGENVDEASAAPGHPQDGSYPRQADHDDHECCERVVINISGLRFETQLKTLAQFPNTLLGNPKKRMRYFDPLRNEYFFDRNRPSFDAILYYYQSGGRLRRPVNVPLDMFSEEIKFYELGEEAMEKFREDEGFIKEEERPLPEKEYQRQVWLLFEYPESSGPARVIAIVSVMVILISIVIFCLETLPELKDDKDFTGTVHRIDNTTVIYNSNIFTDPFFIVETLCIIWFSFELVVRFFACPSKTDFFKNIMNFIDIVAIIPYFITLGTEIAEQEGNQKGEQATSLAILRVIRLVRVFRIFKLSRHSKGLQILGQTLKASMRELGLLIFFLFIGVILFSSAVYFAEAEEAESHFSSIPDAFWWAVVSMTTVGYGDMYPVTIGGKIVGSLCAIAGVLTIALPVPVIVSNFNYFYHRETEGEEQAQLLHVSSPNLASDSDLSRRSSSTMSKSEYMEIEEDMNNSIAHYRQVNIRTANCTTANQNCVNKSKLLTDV
T1 sequence (P22001 whole entry): as the sequence (P22001 whole entry) above

B1: KB_A12_KTX: kaliotoxin in VL CDR2 of KB_A12, IgG1 (antibody)
VH: EVQLVESGGGLVRPGGSLRLSCAASGFTFSSYAMSWVRQAPGKGLEWVSAISGSGGSTYYADSVKGRFTISRDNTKNSLYLQMTSLRADDTAFYYCVKDFGPGYGTGWFDYWGPGTLVTVSS
VL: QSVLTQPPSVSEAPRQRVTITCSGSSSNIGNNAVNWYQQLPGKAPKLLIYAAGRGVEINVKCSGSPQCLKPCKDAGMRFGKCMNRKCHCTPKANSGVSDRFSAAKSGTSASLAINGLRSEDEADYYCAAWDDSLNGYVFGTGTKLTVLGQP
Turning to B1, the IC50 with huKv1.3 is over 10 µM; in the assay with human Kv1.3 (huKv1.3) (four-point curves of FIG. 33, Table E20, read-out: Kv1.3 IC50), 1.54 µM; with human Kv1.3 (huKv1.3) (huKv1.3, four-point curves of FIG. 32, Table E19, read-out: IC50), 0.43 µM; with human Kv1.1 (huKv1.1), 4.8 µM. The molecule further returned a Fold difference with human Kv1.3 (huKv1.3) (Kv1.1 IC50 over Kv1.3 IC50, Table E20) of 3.

As usually defined, the IC50 is the concentration that inhibits the measured activity by half.
